Molecular target: the molecule itself
Assay: SEC; analytical gel filtration of hDHTKD1_(45–919) WT and p.R715C alone; 20 mM HEPES pH 7.5, 150 mM NaCl, 0.5 mM TCEP

B1: human DHTKD1 residues 45-919, p.R715C variant, His-tagged (enzyme, UniProt Q96HY7 45-919, looked up)
chain: GALERPPVDHGLARLVTVYCEHGHKAAKINPLFTGQALLENVPEIQALVQTLQGPFHTAGLLNMGKEEASLEEVLVYLNQIYCGQISIETSQLQSQDEKDWFAKRFEELQKETFTTEERKHLSKLMLESQEFDHFLATKFSTVKRYGGEGAESMMGFFHELLKMSAYSGITDVIIGMPHRGRLNLLTGLLQFPPELMFRKMRGLSEFPENFSATGDVLSHLTSSVDLYFGAHHPLHVTMLPNPSHLEAVNPVAVGKTRGRQQSRQDGDYSPDNSAQPGDRVICLQVHGDASFCGQGIVPETFTLSNLPHFRIGGSVHLIVNNQLGYTTPAERGRSSLYCSDIGKLVGCAIIHVNGDSPEEVVRATRLAFEYQRQFRKDVIIDLLCYRQWGHNELDEPFYTNPIMYKIIRARKSIPDTYAEHLIAGGLMTQEEVSEIKSSYYAKLNDHLNNMAHYRPPALNLQAHWQGLAQPEAQITTWSTGVPLDLLRFVGMKSVEVPRELQMHSHLLKTHVQSRMEKMMDGIKLDWATAEALALGSLLAQGFNVRLSGQDVGRGTFSQRHAIVVCQETDDTYIPLNHMDPNQKGFLEVSNSPLSEEAVLGFEYGMSIESPKLLPLWEAQFGDFFNGAQIIFDTFISGGEAKWLLQSGIVILLPHGYDGAGPDHSSCRIECFLQMCDSAEEGVDGDTVNMFVVHPTTPAQYFHLLRRQMVRNFRKPLIVASPKMLLRLPAAVSTLQEMAPGTTFNPVIGDSSVDPKKVKTLVFCSGKHFYSLVKQRESLGAKKHDFAIIRVEELCPFPLDSLQQEMSKYKHVKDHIWSQEEPQNMGPWSFVSPRFEKQLACKLRLVGRPPLPVPAVGIGTVHLHQHEDILAKTFA
notes: PDB 6sy1 is the wild-type parent of the same limits; source: E. coli BL21(DE3)R3-Rosetta, purified
B1: binds.

Source: paper PMC7340257, “Crystal structure and interaction studies of human DHTKD1 provide insight into a mitochondrial megacomplex in lysine catabolism” (IUCrJ, 2020)
